Reference: publication PMC4157582

Target: TAP-Mud13p (S. cerevisiae) (UniProt Q08920)
Experiment: pull-down

Sequence of UniProt Q08920 (Q08920 whole entry): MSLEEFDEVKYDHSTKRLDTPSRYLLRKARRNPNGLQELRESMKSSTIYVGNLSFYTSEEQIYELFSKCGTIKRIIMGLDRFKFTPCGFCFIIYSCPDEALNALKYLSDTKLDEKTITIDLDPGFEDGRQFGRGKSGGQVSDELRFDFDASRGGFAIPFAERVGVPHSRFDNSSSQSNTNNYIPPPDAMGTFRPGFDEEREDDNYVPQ

B1: Tif4631p Δ491-501 (natural protein)
chain: MTDETAHPTQSASKQESAALKQTGDDQQESQQQRGYTNYNNGSNYTQKKPYNSNRPHQQRGGKFGPNRYNNRGNYNGGGSFRGGHMGANSSNVPWTGYYNNYPVYYQPQQMAAAGSAPANPIPVEEKSPVPTKIEITTKSGEHLDLKEQHKAKLQSQERSTVSPQPESKLKETSDSTSTSTPTPTPSTNDSKASSEENISEAEKTRRNFIEQVKLRKAALEKKRKEQLEGSSGNNNIPMKTTPENVEEKGSDKPEVTEKTKPAEEKSAEPEVKQETPAEEGEQGEKGQIKEESTPKVLTFAERLKLKKQQKEREEKTEGKENKEVPVQEETKSAIESAPVPPSEQVKEETEVAETEQSNIDESATTPAIPTKSDEAEAEVEAEAGDAGTKIGLEAEIETTTDETDDGTNTVSHILNVLKDATPIEDVFSFNYPEGIEGPDIKYKKEHVKYTYGPTFLLQFKDKLNVKADAEWVQSTASKIVIPPGMGRGNSSRGHDFRNTSVRNMDDRANSRTSSKRRSKRMNDDRRSNRSYTSRRDRERGSYRNEEKREDDKPKEEVAPLVPSANRWVPKFKSKKTEKKLAPDGKTELLDKDEVERKMKSLLNKLTLEMFDAISSEILAIANISVWETNGETLKAVIEQIFLKACDEPHWSSMYAQLCGKVVKELNPDITDETNEGKTGPKLVLHYLVARCHAEFDKGWTDKLPTNEDGTPLEPEMMSEEYYAAASAKRRGLGLVRFIGFLYRLNLLTGKMMFECFRRLMKDLTDSPSEETLESVVELLNTVGEQFETDSFRTGQATLEGSQLLDSLFGILDNIIQTAKISSRIKFKLIDIKELRHDKNWNSDKKDNGPKTIQQIHEEEERQRQLKNNSRSNSRRTNNSSNRHSFRRDAPPASKDSFITTRTYSQRNSQRAPPPKEEPAAPTSTATNMFSALMGESDDEE
modifications: 35S-labelled
B1 showed a percent reduction of the interaction efficiency against wild-type Tif4631p greater than 30%.
